Assay results published in US20130109846A1 (published 2013).
Each block holds one binder with its values, some of them ahead of it.

What was measured:
[1] = molecular target: T1, recombinant human CD28/Fc Chimera (human, UniProt P10747 19-152); experiment: BIAcore, CM5 chip coated with 12500 RU of CD28-Fc
T1 construct: bought from R&D Systems; Fc part of the bought chimera not given

[2] = molecular target: T2, human CD28 (human, UniProt P10747 19-220); experiment: cell-based or functional assay
[3] = molecular target: T2, human CD28; experiment: cell-based or functional assay; remark: listed apart in the source
[4] = molecular target: T2, human CD28; experiment: cell-based or functional assay; remark: listed apart in the source
[5] = molecular target: T2, human CD28; experiment: cell-based or functional assay; remark: listed apart in the source
[6] = molecular target: T2, human CD28; experiment: cell-based or functional assay; remark: listed apart in the source

B6: 1h-99-237 (other)
VH: EVQLLESGGGLVQPGGSLRLSCAASGFTFDSANMSWARQAPGKGLEWVSWIEAPGVQTFYADSVRGRFTISRDNSKNTLYLQMNSLRAEDTAVYYCARSPFGPLYGFDYRGQGTLVTVSS
Luciferase assay (EC50) [2]: 3 nM | MLR assay (EC50) [2]: 3 nM | DC-MLR Assay (EC50 nM) [3]: 3 nM | Luciferase assay (EC50 nM) [3]: 3 nM

B7: 1h-99-265 (other)
VH: EVQLLESGGGLVQPGGSLRLSCAASGFTFDKSNMSWARQAPGKGLEWVSWIEASGVQTFYADSVKGRFTISRDNSKNTLYLQMNSLRAEDTAVYYCAKSPFGPLYGFDYRGQGTLVTVSS
Luciferase assay (EC50) [2]: 4 nM | MLR assay (EC50) [2]: 3 nM | IFNγ (EC50 nM), DC-driven MLR [4]: 4.6 nM | IL-2 (EC50 nM), DC-driven MLR [4]: 2.4 nM | TNFα (EC50 nM), DC-driven MLR [4]: 3.6 nM

B8: 1h-99-2 (other)
VH: EVQLLESGGGLVQPGGSLRLSCAASGFTFDSANMSWVRQAPGKGLEWVSWIEDTGTQTFYADSVKGRFTISRDNSKNTLYLQMNSLRAEDTAVYYCAKSPFGPLYGFDYRGQGTLVTVSS
Luciferase assay (EC50) [2]: 17 nM | MLR assay (EC50) [2]: 13 nM | DC-MLR Assay (EC50 nM) [3]: 13 nM | Luciferase assay (EC50 nM) [3]: 17 nM

B9: 1h-99-238 (other)
VH: EVQLLESGGGLVQPGGSLRLSCAASGFTFDSANMSWARQAPGKGLEWVSWIEASGVQTFYADSVKGRFTISRDNSKNTLYLQMNSLRAEDTAVYYCAKSPFGPLYGFDYRGQGTLVTVSS
Luciferase assay (EC50) [2]: 3 nM | MLR assay (EC50) [2]: 5 nM | DC-MLR Assay (EC50 nM) [3]: 5 nM | Luciferase assay (EC50 nM) [3]: 3 nM

B12: 1h-239-8 (other)
VL: DIQMTQSPSSLSASVGDRVTITCRASQSIYPFLEWYQQKPGKAPKLLIYFTSRLQSGVPSRFSGSGSGTDFTLTISSLQPEDFATYYCLQNVTNPATFSQGTKVEIKR
Luciferase assay (EC50) [2]: 10 nM | DC-MLR Assay (EC50 nM) [3]: 13 nM | Luciferase assay (EC50 nM) [3]: 10 nM

B14: 1h-239-850 (other)
VL: DIQMTQSPSSLSASVGDRVTITCRASRPIWPFLEWYQQKPGKAPKLLIYFTSRLQSGVPSRFSGSGSGTDFTLTISSLQPEDFATYYCLQNVSMPATFSQGTKVEIKR
Luciferase assay (EC50) [2]: 9 nM | MLR assay (EC50) [2]: 2 nM | DC-MLR Assay (EC50 nM) [3]: 2 nM | Luciferase assay (EC50 nM) [3]: 9 nM

B16: 1h-239-891 (other)
VL: DIQMTQSPSSLSASVGDRVTITCRASRPIWPFLEWYQQKPGKAPKLLIYFTSRLRHGVPSRFSGSGSGTDFTLTISSLQPEDFATYYCLQNVANPATFSQGTKVEIKR
CD80 CHO (EC50 nM), T cell proliferation [5]: 0.3 nM | CD86 CHO (EC50 nM), T cell proliferation [5]: 0.4 nM | DC-MLR Assay (EC50 nM) [3]: 0.5 nM | Luciferase assay (EC50 nM) [3]: 0.2 nM | IFNγ (EC50 nM), DC-driven MLR [4]: 0.2 nM | IL-2 (EC50 nM), DC-driven MLR [4]: 0.1 nM | TNFα (EC50 nM), DC-driven MLR [4]: 0.2 nM

B17: 1h-239-891(D70C) 30K linear PEG (other)
VL: DIQMTQSPSSLSASVGDRVTITCRASRPIWPFLEWYQQKPGKAPKLLIYFTSRLRHGVPSRFSGSGSGTCFTLTISSLQPEDFATYYCLQNVANPATFSQGTKVEIKR
modifications: 30 kDa linear PEG; engineered cysteine D70C
CD80 CHO (EC50 nM), T cell proliferation [5]: 1 nM | CD86 CHO (EC50 nM), T cell proliferation [5]: 0.5 nM | DC-MLR Assay (EC50 nM) [3]: 1.2 nM | IFNγ (EC50 nM), DC-driven MLR [4]: 0.6 nM | IL-2 (EC50 nM), DC-driven MLR [4]: 0.6 nM | TNFα (EC50 nM), DC-driven MLR [4]: 0.6 nM

B18: 1h-239-891(D70C) 40K branched PEG (other)
VL: DIQMTQSPSSLSASVGDRVTITCRASRPIWPFLEWYQQKPGKAPKLLIYFTSRLRHGVPSRFSGSGSGTCFTLTISSLQPEDFATYYCLQNVANPATFSQGTKVEIKR
modifications: 40 kDa branched PEG; engineered cysteine D70C
CD80 CHO (EC50 nM), T cell proliferation [5]: 0.4 nM | CD86 CHO (EC50 nM), T cell proliferation [5]: 0.4 nM | EC50 of T cell proliferation, Monocytes as APC [6]: 10 | DC-MLR Assay (EC50 nM) [3]: 2.3 nM | IFNγ (EC50 nM), DC-driven MLR [4]: 2.5 nM | IL-2 (EC50 nM), DC-driven MLR [4]: 1.5 nM | TNFα (EC50 nM), DC-driven MLR [4]: 1.7 nM

B20: 1h-239-890 (other)
VL: DIQMTQSPSSLSASVGDRVTITCRASRPIWPFLEWYQQKPGKAPKLLIYFTSRLARGVPSRFSGSGSGTDFTLTISSLQPEDFATYYCLQNVANPATFSQGTKVEIKR
IFNγ (EC50 nM), DC-driven MLR [4]: 0.3 nM | IL-2 (EC50 nM), DC-driven MLR [4]: 0.1 nM | TNFα (EC50 nM), DC-driven MLR [4]: 0.2 nM

Other lines, results leading:

binding result [1]: binds
B1: DOM21-18 (other)
VL: DIQMTQSPSSLSASVGDRVTITCRASQYIGTSLNWYQQKPGKAPKLLTYQASLLQSGVPSRFSGSGSGTDFTLTISSLQPEDFATYYCQQLALRPMTFGQGTKVEIKR
notes: VK dAb

binding result [1]: binds
B2: DOM21-4 (other)
VH: EVQLLESGGGLVQPGGSLRLSCAASGFTFSRYHMAWVRQAPGKGLEWVSVIDSLGLQTYYADSVKGRFTISRDNSKNTLYLQMNSLRAEDTAVYYCAEYGGAFDYWGQGTLVTVSS
notes: VH dAb

binding result [1]: binds
B3: DOM21-22 (other)
VH: EVQLLESGGGLVQPGGSLRLSCAASGFTFELYQMGWVRQAPGKGLEWVSTIMPSGNLTYYADSVKGRFTISRDNSKNTLYLQMNSLRAEDTAVYYCAKMWSLNLGFHAAFDYWGQGTLVTVSS
notes: VH dAb

binding result [1]: binds
B4: DOM21-27 (other)
VL: DIQMTQSPSSLSASVGDRVTITCRASQSIGTGLRWYQQKPGKAPMLLIYRASILQSGVPSRFSGSGSGTDFTLTISSLQPEDFATYYCQQTTLQPFTFSQGTKVEIKR
notes: VK dAb

binding result [1]: binds
B5: DOM21-38 (other)
VH: EVQLLESGGGLVQPGGSLRLSCAASGFTFILYDMQWVRQAPGKGLEWVSRISANGHDTYYADSVKGRFTISRDNSKNTLYLQMNSLRAEDTAVYYCAKGPHYLFDYWGQGTLVTVSS
notes: VH dAb

binding result [1]: binds
B10: DOM21-6 (other)
VH: EVQLLESGGGLVQPGGSLRLSCAASGFTFENYGMAWVRQAPGKGLEWVSNIGRAGSVTYYADSVKGRFTISRDNSKNTLYLQMNSLRAEDTAVYYCAKVQSWRTFDYWGQGTLVTVSS
notes: VH dAb

binding result [1]: binds
B11: DOM21-44 (other)
VH: EVQLLESGGGLVQPGGSLRLSCAASGFTFARYTMVWVRQAPGKGLEWVSAIHFDGRTTYYADSVKGRFTISRDNSKNTLYLQMNSLRAEDTAVYYCAKNEWASLKHFDYWGQGTLVTVSS
notes: VH dAb

IFNγ (EC50 nM), DC-driven MLR [4]: 0.3 nM | IL-2 (EC50 nM), DC-driven MLR [4]: 0.3 nM | TNFα (EC50 nM), DC-driven MLR [4]: 0.3 nM
B13: 1h-239-896 (other)
VL: DIQMTQSPSSLSASVGDRVTITCRASRPIWPFLEWYQQKPGKAPKLLIYFTSRLARGVPSRFSGSGSGTDFTLTISSLQPEDFATYYCLQNVQMPATFSQGTKVEIKR

DC-MLR Assay (EC50 nM) [3]: 4.9 nM
B15: 1h-239-891(Q79C) 40K branched PEG (other)
VL: DIQMTQSPSSLSASVGDRVTITCRASRPIWPFLEWYQQKPGKAPKLLIYFTSRLRHGVPSRFSGSGSGTDFTLTISSLCPEDFATYYCLQNVANPATFSQGTKVEIKR
modifications: 40K branched PEG; engineered cysteine Q79C

DC-MLR Assay (EC50 nM) [3]: 1.2 nM
B19: 1h-239-891(S60C) 40K branched PEG (other)
VL: DIQMTQSPSSLSASVGDRVTITCRASRPIWPFLEWYQQKPGKAPKLLIYFTSRLRHGVPCRFSGSGSGTDFTLTISSLQPEDFATYYCLQNVANPATFSQGTKVEIKR
modifications: 40K branched PEG; engineered cysteine S60C

binding result [1]: binds
B21: DOM21-20 (other)
VH: EVQLLESGGGLVQPGGSLRLSCAASGFTFPAYSMIWVRQAPGKGLEWVSTISPLGYSTYYADSVKGRFTISRDNSKNTLYLQMNSLRAEDTAVYYCAEQTAYLNRATEHFDYWGQGTLVTVSS
notes: VH dAb

binding result [1]: binds
B22: DOM21-28 (other)
VL: DIQMTQSPSSLSASVGDRVTITCRASQSISHSLVWYQQKPGKAPKLLIYWASLLQSGVPSRFSGSGSGTDFTLTISSLQPEDFATYYCQQGMTTPFTFGQGTKVEIKR
notes: VK dAb
